Target: NcsA from Methanococcus maripaludis (Methanococcus maripaludis)
Test: SEC; apo-MmNcsA on a gel filtration column calibrated with protein standards

NcsA from Methanococcus maripaludis (enzyme)
stoichiometry N: 2

From publication PMC10067955
